Laboratory results as given in patent US20220168402A1, “PIP4Ks SUPPRESS INSULIN SIGNALING AND ENHANCE IMMUNE FUNCTION THROUGH A CATALYTIC-INDEPENDENT MECHANISM” (Cornell University, priority 2019, published 2022).
Changes are numbered by the printed parent chain.

T1: PIP5K1A (purified, in vitro kinase assay), Q99755
T1 chain: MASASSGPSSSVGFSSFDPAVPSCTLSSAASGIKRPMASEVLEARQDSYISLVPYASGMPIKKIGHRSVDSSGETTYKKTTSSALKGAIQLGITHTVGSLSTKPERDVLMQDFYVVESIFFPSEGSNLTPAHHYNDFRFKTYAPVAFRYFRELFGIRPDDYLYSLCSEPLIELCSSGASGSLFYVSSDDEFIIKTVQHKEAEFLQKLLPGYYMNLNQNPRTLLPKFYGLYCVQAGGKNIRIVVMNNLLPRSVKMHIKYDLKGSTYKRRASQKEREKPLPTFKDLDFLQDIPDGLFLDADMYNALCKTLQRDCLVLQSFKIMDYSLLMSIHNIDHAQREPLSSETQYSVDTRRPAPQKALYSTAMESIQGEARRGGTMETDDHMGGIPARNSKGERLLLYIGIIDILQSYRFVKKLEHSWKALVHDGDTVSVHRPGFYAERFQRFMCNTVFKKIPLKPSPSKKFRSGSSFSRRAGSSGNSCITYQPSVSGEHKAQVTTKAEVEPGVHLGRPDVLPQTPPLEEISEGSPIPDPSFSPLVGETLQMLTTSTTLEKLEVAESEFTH

B1: PIP4K2B (purified) (protein)
chain: MSSNCTSTTAVAVAPLSASKTKTKKKHFVCQKVKLFRASEPILSVLMWGVNHTINELSNVPVPVMLMPDDFKAYSKIKVDNHLFNKENLPSRFKFKEYCPMVFRNLRERFGIDDQDYQNSVTRSAPINSDSQGRCGTRFLTTYDRRFVIKTVSSEDVAEMHNILKKYHQFIVECHGNTLLPQFLGMYRLTVDGVETYMVVTRNVFSHRLTVHRKYDLKGSTVAREASDKEKAKDLPTFKDNDFLNEGQKLHVGEESKKNFLEKLKRDVEFLAQLKIMDYSLLVGIHDVDRAEQEEMEVEERAEDEECENDGVGGNLLCSYGTPPDSPGNLLSFPRFFGPGEFDPSVDVYAMKSHESSPKKEVYFMAIIDILTPYDTKKKAAHAAKTVKHGAGAEISTVNPEQYSKRFNEFMSNILT
B2: PIP4K2C (purified) (protein)
chain: MASSSVPPATVSAATAGPGPGFGFASKTKKKHFVQQKVKVFRAADPLVGVFLWGVAHSINELSQVPPPVMLLPDDFKASSKIKVNNHLFHRENLPSHFKFKEYCPQVFRNLRDRFGIDDQDYLVSLTRNPPSESEGSDGRFLISYDRTLVIKEVSSEDIADMHSNLSNYHQYIVKCHGNTLLPQFLGMYRVSVDNEDSYMLVMRNMFSHRLPVHRKYDLKGSLVSREASDKEKVKELPTLKDMDFLNKNQKVYIGEEEKKIFLEKLKRDVEFLVQLKIMDYSLLLGIHDIIRGSEPEEEAPVREDESEVDGDCSLTGPPALVGSYGTSPEGIGGYIHSHRPLGPGEFESFIDVYAIRSAEGAPQKEVYFMGLIDILTQYDAKKKAAHAAKTVKHGAGAEISTVHPEQYAKRFLDFITNIFA
B3: GST-PIP4K2C^VD (enzyme)
chain: B2 chain with V69E, M70I, L71F, D74N, D75N
notes: the text and the Quik-2CVD primer give EIF, which is used here; not shown: glutathione S-transferase (GST) tag from a pGEX vector
B4: PIP4K2A (purified) (protein)
chain: MATPGNLGSSVLASKTKTKKKHFVAQKVKLFRASDPLLSVLMWGVNHSINELSHVQIPVMLMPDDFKAYSKIKVDNHLFNKENMPSHFKFKEYCPMVFRNLRERFGIDDQDFQNSLTRSAPLPNDSQARSGARFHTSYDKRYIIKTITSEDVAEMHNILKKYHQYIVECHGITLLPQFLGMYRLNVDGVEIYVIVTRNVFSHRLSVYRKYDLKGSTVAREASDKEKAKELPTLKDNDFINEGQKIYIDDNNKKVFLEKLKKDVEFLAQLKLMDYSLLVGIHDVERAEQEEVECEENDGEEEGESDGTHPVGTPPDSPGNTLNSSPPLAPGEFDPNIDVYGIKCHENSPRKEVYFMAIIDILTHYDAKKKAAHAAKTVKHGAGAEISTVNPEQYSKRFLDFIGHILT

Assays:
[1] = target: PIP5K1A (purified, in vitro kinase assay) (UniProt Q99755)
PIP5K1A = target: T2, PIP5K1A (Homo sapiens, UniProt Q99755); assay: In vitro kinase assay: conversion of PI(4)P to radiolabeled PI(4,5)P2 by PIP5K1A with purified PIP4K proteins added; assay type: biochemical; conditions: for inhibition of PIP5K1A activity (PI(4)P to PI(4,5)P2): purified proteins, PI(4)P liposomes, 2-10 fold molar excess of PIP4K
T2 construct: made in house; host or cells: E. coli
Procedure: BL21 bacterial cells were transfected with pGEX vectors with PIP4K isoform coding sequence variants. Cells were grown in 1 L of TB at 37° at 200 rpm until 0.8 OD, at which point 500 uL of 1M IPTG was added. Cultures were shaken overnight at room temp for protein induction and pelleted at 5000 g for 15 minutes. Cells were lysed (50 mM Tris pH 7.5, 500 mM NaCl, 10 mM MgCl2, 10% glycerol, DTT, lysozyme, protein/phosphatase inhibitors), sonicated for 1 minute (output 4, continuous duty cycle) and spun down at 10,000 g for 1 hour. Supernatant was kept for further purification and cleavage according to manufacturer's protocol using glutathione sepharose beads.
Cells were trypsinized and normalized for cell number. Cell pellets, or E. coli purified proteins were resuspended in HNE buffer (20 mM HEPES pH 7.4, 100 mM NaCl, 0.5 mM EGTA), and sonicated in the presence of 32P-γ-ATP, and liposomes (10 ug PS, 1 ug PI(4)P in 30 mM HEPES pH 7.4, 1 mM EGTA). Liposome lipids were purchased from Avanti. Reactions were stopped by addition of 50 uL of 4N HCL. To extract lipids, 100 μL of MeOH:CHCl3 (1:1) was added and samples were vortexed 2×30 seconds. Samples were spun down at top speed for 2 min and the organic phase containing phosphatidylinositol lipids (bottom) were separated using thin-layer chromatography (TLC) using 1-propanol: 2N acetic acid (65:35 v/v). TLC plates were prepared ahead of time by coating with 1% Potassium Oxalate. Phosphorylated lipids were visualized by autoradiography on a GE Typhoon FLA 7000 and quantified using ImageQuant TL software.

[2] = target: T1, PIP5K1A (purified, in vitro kinase …)
[3] = target: endogenous PIP5K1A (293T lysate) (UniProt Q99755 1-562, limits assumed); assay: GST pulldown from 293T lysates with bead-bound bait, western blot (FIG. 3J)
Procedure: These lysates and purified protein were incubated together at 4 degrees for 1 hour before the beads were again pelleted, washed with IP buffer three times, eluted with 2M NaCl, and analyzed by SDS PAGE and western blot.

Molecule	in vitro kinase assay: conversion of PI(4)P to radiolabeled PI(4,5)P2 by PIP5K1A (FIG. 4H) [1]	inhibition of PIP5K1A activity (PI(4)P to PI(4,5)P2) (PIP5K1A)	in vitro kinase assay: conversion of PI(4)P to radiolabeled PI(4,5)P2 by PIP5K1A (FIG. 3K) [2]	other results
GST-PIP4K2C 74DD to 74NN	Mutating 74DD to be 74NN or mutating 91REN to be 91 EED within GST-PIP4K2C did not prevent this protein from inhibiting PIP5K1A	–	–	–
GST-PIP4K2C 91REN to 91EED	Mutating 74DD to be 74NN or mutating 91REN to be 91 EED within GST-PIP4K2C did not prevent this protein from inhibiting PIP5K1A	–	–	–
B1	–	inhibited	–	–
B2	–	–	PIP5K1A, which is inhibited by PIP4K2C but not PIP4K2C^VD	–
B3	–	–	PIP4K2C^VD failed to inhibit PIP5K1A activity	binding result [3]: no binding
B4	–	inhibited	–	inhibition of PIP5K1A activity in presence of detergent (PIP5K1A; 0.1% Triton-X100, no PI(4)P liposomes): eliminated the ability of PIP4K2A to inhibit PIP5K1A
